Read-outs that look alike come from different tables or passages of the source.
T1: human C3aR (Homo sapiens, UniProt Q16581)
T1 sequence (Q16581 1-482): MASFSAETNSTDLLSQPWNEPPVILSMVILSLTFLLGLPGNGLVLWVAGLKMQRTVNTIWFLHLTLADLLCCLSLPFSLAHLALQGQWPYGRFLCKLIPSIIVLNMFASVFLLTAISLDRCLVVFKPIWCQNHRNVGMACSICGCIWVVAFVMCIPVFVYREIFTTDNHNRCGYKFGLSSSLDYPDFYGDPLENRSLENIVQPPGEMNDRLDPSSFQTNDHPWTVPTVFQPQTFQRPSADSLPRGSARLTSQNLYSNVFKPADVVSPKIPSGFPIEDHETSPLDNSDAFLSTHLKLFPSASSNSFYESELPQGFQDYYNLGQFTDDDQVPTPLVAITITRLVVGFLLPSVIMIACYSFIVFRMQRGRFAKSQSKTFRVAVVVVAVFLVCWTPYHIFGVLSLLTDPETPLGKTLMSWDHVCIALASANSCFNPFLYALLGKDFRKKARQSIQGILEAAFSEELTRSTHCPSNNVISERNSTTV

T2: Human complement C3a receptor, endogenous on human monocyte-derived macrophages (human (endogenous in HMDMs)) (UniProt Q16581)
T2 sequence: T1 sequence (Q16581 1-482)

T3: Human complement C3a receptor, stably expressed on CHO cells (human) (UniProt Q16581)
T3 sequence: T1 sequence (Q16581 1-482)

T4: Murine complement C3a receptor, endogenous on mouse bone marrow-derived macrophages (mouse (endogenous in BMDMs)) (UniProt O09047)
T4 sequence: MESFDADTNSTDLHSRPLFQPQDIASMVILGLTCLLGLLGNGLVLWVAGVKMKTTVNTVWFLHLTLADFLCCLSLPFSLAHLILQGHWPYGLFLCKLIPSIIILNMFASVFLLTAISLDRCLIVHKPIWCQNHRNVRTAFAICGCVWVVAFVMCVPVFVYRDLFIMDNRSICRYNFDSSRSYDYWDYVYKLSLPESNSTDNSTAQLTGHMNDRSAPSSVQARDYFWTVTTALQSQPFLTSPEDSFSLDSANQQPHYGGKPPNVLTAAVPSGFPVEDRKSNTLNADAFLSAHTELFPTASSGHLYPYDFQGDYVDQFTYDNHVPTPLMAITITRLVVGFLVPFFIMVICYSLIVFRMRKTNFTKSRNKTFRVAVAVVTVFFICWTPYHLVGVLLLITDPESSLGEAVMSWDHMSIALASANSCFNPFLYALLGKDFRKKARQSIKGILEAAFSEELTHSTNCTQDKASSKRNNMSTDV


Assays:
BMDM (murine C3aR) = type: cell-based, mouse; details: wild-type C57BL/6J BMDMs, 90,000/well; 10 min stimulation at RT; AlphaLISA p-ERK1/2; n = 3 mice; C3a is recombinant mouse C3a; read-out: EC50 (pERK1/2), BMDM
Experimental: Mouse bone marrow-derived macrophages (BMDMs) were obtained and cultured as previously described ([20], [21]). All experiments using mice were approved by the University of Queensland animal ethics committee. Wild-type and C3aR^-/- mice on a C57BL/6J genetic background (n = 3) were sacrificed by cervical dislocation. The tibia was removed and sterilised. Upon removal of both epiphyses, bone marrow cells were harvested by flushing the central cavity with complete RPMI-1640 medium using a 10 ml syringe attached to a 25-gauge needle. Cells were then cultured in complete RPMI-1640 medium (containing 10 % FBS, 100 IU/ml penicillin, 100 μg/ml streptomycin) supplemented with 100 ng/ml recombinant human macrophage colony stimulating factor on 10 mm square dishes. Mature adherent macrophages for assays were harvested on day 6-7 by gentle scraping.
(§1) Ligand-induced ERK1/2 phosphorylation was assessed using the AlphaLISA Surefire Ultra p-ERK1/2 (Thr202/Tyr204) kit (PerkinElmer, Melbourne, Australia) following the manufacturer’s protocol as previously described ([18], [20], [22]). Briefly, CHO-K1, CHO-C3aR, CHO-C5aR1, HMDMs (50,000/well) or BMDMs (90,000/well) were seeded in tissue culture-treated 96-well plates (Corning, Corning, USA) for 24 h and serum-starved overnight. All ligand dilutions were prepared in serum-free medium (SFM) containing 0.1% BSA. For inhibition assays, cells were pre-treated with the following ligands (5 µM SB290157, or respective concentrations of hC3a, mC3a, hC5a, hTLQP-21, and mTLQP-21) or the solvent-only control for 30 min before agonist (hC3a, hTLQP-21 and mTLQP-21) addition. The concentration and identity of the ligands are described in detail in the figure legends. For stimulation, cells were treated with ligands at the indicated concentrations for 10 min at RT and then immediately lysed using AlphaLISA lysis buffer on a microplate shaker (450 rpm, 10 min). For the detection of phospho-ERK1/2 content, cell lysate (5 μL/well) was transferred to a 384-well ProxiPlate (PerkinElmer, Melbourne, Australia) and added to the donor and acceptor reaction mix (2.5 μL/well, respectively), followed by a 2-h incubation at RT in the dark. On a Tecan Spark 20M (Tecan, Männedorf, Switzerland), the plate was measured using standard AlphaLISA settings.
(§2) All experiments were conducted in triplicates and repeated on three separate occasions unless otherwise specified. Data was analysed using GraphPad software (Prism 9.1). Data from each individual repeat was normalised accordingly (as specified in the figure legends) before being combined and expressed as mean ± standard error of the mean (S.E.M.) unless otherwise described. For all dose-response studies, logarithmic concentration-response curves were plotted using combined data and analysed to determine the respective potency values. Statistical analysis was performed using two-way ANOVA with Dunnett’s post hoc analysis. Donor-matched comparisons were made for HMDM experiments. Differences were deemed significant when p < 0.05.
Figure 4 TLQP-21 triggers ERK signalling through C3aR in murine bone marrow-derive macrophages. BMDMs (90,000/well) from wildtype mice (A) or with C3aR knockout mice (B), were serum-starved overnight and then stimulated with respective ligands at the indicated concentrations for 10 min. The phospho-ERK1/2 content in the cell lysate was measured and normalised to the medium only-treated levels before being combined. Data represent mean ± S.E.M. of triplicate measurements using cells from 3 mice (n = 3).

[1] = tested on: HMDM (endogenous human C3aR); type: cell-based; details: 10 min stimulation at RT, n = 4 donors
Source text: HMDMs were generated and cultured as previously described ([20]), with experiments approved by The University of Queensland Human Research Ethics Committee. Briefly, human buffy coat blood from anonymous healthy donors was obtained through the Australian Red Cross Blood Service (Brisbane, Australia). Human CD14+ monocytes were isolated from blood using Lymphoprep density centrifugation (STEMCELL, Melbourne, Australia) followed by CD14+ MACS magnetic bead separation (Miltenyi Biotec, Sydney, Australia). The isolated monocytes were differentiated for 7 days in Iscove’s Modified Dulbecco’s Medium supplemented with 10% FBS, 100 IU/ml penicillin, 100 μg/ml streptomycin and 15 ng/ml recombinant human macrophage colony stimulating factor (BioLegend, San Diego, USA) on 10 mm square dishes (Bio-strategy, Brisbane, Australia). Non-adherent cells were removed by washing with DPBS, and the adherent differentiated HMDMs were harvested by gentle scraping.
as §1, §2
Figure 3 Agonistic and antagonistic activities of hTLQP-21 and mTLQP-21 in human monocyte-derived macrophages. Serum-starved HMDMs (50,000/well) were (A) stimulated with medium or respective ligands at the indicated concentrations for 10 min and then lysed, or (B) pre-treated with 5 µM SB290157 for 30 min prior to stimulation. (C) HMDMs were pre-treated with 10 μM hTLQP-21 or mTLQP-21 for 30 min before being stimulated with respective concentrations of human C3a. (D) HMDMs were pre-treated with 10 nM hC3a, 10 μM hTLQP-21 or mTLQP-21 for 30 min before being stimulated with the same concentrations of the above ligands for 10 min and then lysed. (E) HMDMs were pre-treated with 10 μM hTLQP-21 or mTLQP-21 for 30 min before being stimulated with respective concentrations of human C5a for 10 min and then lysed. […]

human C3aR = biological target: T1, human C3aR; test: phospho-ERK1/2 assay in CHO-C3aR cells; type: cell-based; details: efficacy relative to hC3a; fold baseline normalised; n = 3-4
Experimental: Cell lines for this study were cultured as previously described ([20]). Non-transfected CHO-K1 cells or CHO cells stably expressing the human C3aR (CHO-C3aR; Product # ES-730-C, PerkinElmer, Melbourne, Australia) were maintained in Ham’s F12 medium containing 10% foetal bovine serum (FBS), 100 IU/ml penicillin and 100 μg/ml streptomycin, with additional 400 μg/ml G418 (In vivoGen, San Diego, USA) added for CHO-C3aR cell culture. HEK293 cells were maintained in DMEM medium containing 10% FBS, 100 IU/ml penicillin and 100 μg/ml streptomycin. All cell lines were maintained in T175 flasks (37°C, 5% CO2) and subcultured at 80-90% confluency using 0.05% trypsin-EDTA in DPBS.
as §1, §2
Figure 1 hTLQP-2 and mTLQP-21 activate ERK signalling in CHO-K1 and CHO-C3aR cells. hTLQP-21, mTLQP-21 and plasma-derived human C3a were tested in (A) non-transfected CHO-K1 or (B) CHO cells stably expressing human C3aR. CHO cells were serum-starved overnight and then stimulated with various ligands for 10 min before being lysed. The phospho-ERK1/2 content in the lysate was measured and expressed as fold-baseline before being combined. The maximum relative pERK1/2 activity induced by each ligand is shown in (C). Data represent mean ± S.E.M. of triplicate measurements from 3-4 independent experiments (n = 3-4). Two-way ANOVA with Dunnett’s post hoc analysis. *P < 0.05, ***P < 0.001, ****P < 0.0001. Ligand treated versus medium treated cells for each cell line.

[2] = biological target: T2, Human complement C3a receptor, endogenous on human monocyte-derived macrophages (human (endogenous in HMDMs))
[3] = biological target: T3, Human complement C3a receptor, stably expressed on CHO cells (human)
[4] = biological target: Endogenous C3aR of CHO-K1 cells (Chinese hamster (endogenous in CHO-K1))
[5] = biological target: T3, Human complement C3a receptor, stably expressed on CHO cells (human); remark: listed apart in the source
[6] = biological target: T2, Human complement C3a receptor, endogenous on human monocyte-derived macrophages (human (endogenous in HMDMs)); remark: listed apart in the source
[7] = biological target: T4, Murine complement C3a receptor, endogenous on mouse bone marrow-derived macrophages (mouse (endogenous in BMDMs))
[8] = biological target: T2, Human complement C3a receptor, endogenous on human monocyte-derived macrophages (human (endogenous in HMDMs)); remark: listed apart in the source

Sequence of Recombinant mouse C3a (P01027 671-748): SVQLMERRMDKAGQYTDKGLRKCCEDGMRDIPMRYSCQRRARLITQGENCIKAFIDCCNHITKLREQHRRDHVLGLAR

Row | Molecule | EC50 (BMDM (murine C3aR)) [nM] | EC50 (nM) of ERK1/2 phosphorylation in HMDMs [2] [nM] | EC50 (nM) of ERK1/2 phosphorylation in CHO-C3aR cells [3] [nM] | EC50 (nM) of ERK1/2 phosphorylation in BMDMs [7] [nM] | other results
1 | CC(C)C[C@H](NC(=O)[C@H](C)NC(=O)[C@H](CO)NC(=O)[C@@H]1CCCN1C(=O)[C@@H]1CCCN1C(=O)[C@H](CCC(N)=O)NC(=O)[C@H](CC(C)C)NC(=O)[C@@H](N)[C@@H](C)O)C(=O)N[C@@H](CCCNC(=N)N)C(=O)N[C@@H](CCCNC(=N)N)C(=O)N[C@@H](CCCNC(=N)N)C(=O)N[C@@H](Cc1c[nH]cn1)C(=O)N[C@@H](Cc1ccc(O)cc1)C(=O)N[C@@H](Cc1c[nH]cn1)C(=O)N[C@@H](Cc1c[nH]cn1)C(=O)N[C@@H](C)C(=O)N[C@@H](CC(C)C)C(=O)N1CCC[C@H]1C(=O)N1CCC[C@H]1C(=O)N[C@@H](CO)C(=O)N[C@@H](CCCNC(=N)N)C(=O)O [hTLQP-21] | 401 | – | – | – | EC50 ([1]; estimated, read-out: estimated EC50 (pERK1/2), HMDM): 14800 nM; % C3a activity ± SE, CHO-C3aR (human C3aR): 87.0 ± 3.5%
2 | CC(C)C[C@H](NC(=O)[C@@H](N)[C@@H](C)O)C(=O)N[C@@H](CCC(N)=O)C(=O)N1CCC[C@H]1C(=O)N1CCC[C@H]1C(=O)N[C@@H](C)C(=O)N[C@@H](CO)C(=O)N[C@@H](CO)C(=O)N[C@@H](CCCNC(=N)N)C(=O)N[C@@H](CCCNC(=N)N)C(=O)N[C@@H](CCCNC(=N)N)C(=O)N[C@@H](Cc1c[nH]cn1)C(=O)N[C@@H](Cc1ccccc1)C(=O)N[C@@H](Cc1c[nH]cn1)C(=O)N[C@@H](Cc1c[nH]cn1)C(=O)N[C@@H](C)C(=O)N[C@@H](CC(C)C)C(=O)N1CCC[C@H]1C(=O)N1CCC[C@H]1C(=O)N[C@@H](C)C(=O)N[C@@H](CCCNC(=N)N)C(=O)O [mTLQP-21] | 96.5 | – | – | – | EC50 ([1]; primary human macrophages, 50,000/well, AlphaLISA p-ERK1/2, read-out: EC50 (pERK1/2), HMDM): 2850 nM; % C3a activity ± SE, CHO-C3aR (human C3aR): 91.8 ± 2.7%
3 | Human C3a (from UniProt P01024 672-748) (ligand) | – | 0.11 | 0.15 | – | relative efficacy of C3a-induced ERK signalling in CHO-K1 cells, fold baseline (fold baseline) [4]: 2.7; relative efficacy of C3a-induced ERK signalling in CHO-C3aR cells, fold baseline (fold baseline) [5]: 7.3; C3a-induced ERK signalling in HMDMs pre-treated with the C3aR antagonist SB290157, % of the untreated level (% of the untreated level) [6]: < 20
4 | Recombinant mouse C3a (from UniProt P01027 671-748) (ligand) | – | – | – | 8.4 | –
5 | mC3a: Recombinant mouse C3a, purchased from R&D Systems | 8.4 | – | – | – | –
6 | TLQPPSALRRRHYHHALPPSR [Human TLQP-21] | – | 14800 | 587 | 401 | hTLQP-21 induced ERK activation in HMDMs pre-treated with the C3aR antagonist SB290157 (5 μM, 30 min), % of the control level (% of the control level) [8]: 29
7 | TLQPPASSRRRHFHHALPPAR [Mouse TLQP-21] | – | 2850 | 83.6 | 96.5 | ERK signalling in HMDMs by 10 μM mTLQP-21 under the control conditions of Figure 3B, % of the C3a induced activity (% of the C3a induced activity) [8]: 40; mTLQP-21 induced ERK activation in HMDMs pre-treated with the C3aR antagonist SB290157 (5 μM, 30 min), % of the control level (% of the control level) [8]: 16
